Source: FireProtDB (doi:10.1021/bi00197a024)

Settings: Saccharomyces cerevisiae (strain ATCC 204508 / S288c), Thermal, DSC, Sodium phosphate 0.1 M, reversible: yes

Sequence of Cytochrome c isoform 1 wild type, P00044 (P00044 whole entry, canonical isoform): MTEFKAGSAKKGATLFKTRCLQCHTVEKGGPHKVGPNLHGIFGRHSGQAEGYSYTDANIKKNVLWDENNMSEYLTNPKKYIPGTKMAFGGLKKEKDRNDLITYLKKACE
Sequence of Cytochrome c isoform 1 C108A, P00044 (P00044 whole entry C108A, canonical isoform): as the sequence (P00044 whole entry, canonical isoform) above, with C108A counted along it

| Substance | Tm (pH 5, structure 1YCC) | unfolding enthalpy (calorimetric) (pH 5, structure 1YCC) | unfolding enthalpy (van 't Hoff) (pH 5, structure 1YCC) | Tm (pH 6, structure 1YCC) | unfolding enthalpy (calorimetric) (pH 6, structure 1YCC) | unfolding enthalpy (van 't Hoff) (pH 6, structure 1YCC) | Tm (pH 5) | unfolding enthalpy (calorimetric) (pH 5) | unfolding enthalpy (van 't Hoff) (pH 5) | Tm (pH 6) | unfolding enthalpy (calorimetric) (pH 6) | unfolding enthalpy (van 't Hoff) (pH 6) |
| --- | --- | --- | --- | --- | --- | --- | --- | --- | --- | --- | --- | --- |
| Cytochrome c isoform 1 C108A, P00044 | 55.5 °C | 68.9 kcal/mol | 99.2 kcal/mol | 56.2 °C | 69.9 kcal/mol | 104 kcal/mol |  |  |  |  |  |  |
| Cytochrome c isoform 1 wild type, P00044 |  |  |  |  |  |  | 47.4 °C | 58.3 kcal/mol | 82.2 kcal/mol | 50.7 °C | 64.5 kcal/mol | 92.2 kcal/mol |
